From PMC5170556 (Molecular Biology of the Cell, 2016)

T1: Bim1 (full-length) (S. cerevisiae, UniProt P40013 1-344)
T1 sequence (looked up): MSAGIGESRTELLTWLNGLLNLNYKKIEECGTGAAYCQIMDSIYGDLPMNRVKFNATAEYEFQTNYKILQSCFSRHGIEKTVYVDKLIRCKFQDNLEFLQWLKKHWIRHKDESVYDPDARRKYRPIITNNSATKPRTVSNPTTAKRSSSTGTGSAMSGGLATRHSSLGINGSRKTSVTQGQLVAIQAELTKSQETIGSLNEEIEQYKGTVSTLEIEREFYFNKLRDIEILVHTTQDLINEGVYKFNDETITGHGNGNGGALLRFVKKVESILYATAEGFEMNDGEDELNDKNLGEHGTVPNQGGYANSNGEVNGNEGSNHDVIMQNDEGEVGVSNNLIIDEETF

T2: Kar9N-Site1 (first 570 N-terminal residues of Kar9) (S. cerevisiae, UniProt P32526 1-570)
T2 sequence (looked up): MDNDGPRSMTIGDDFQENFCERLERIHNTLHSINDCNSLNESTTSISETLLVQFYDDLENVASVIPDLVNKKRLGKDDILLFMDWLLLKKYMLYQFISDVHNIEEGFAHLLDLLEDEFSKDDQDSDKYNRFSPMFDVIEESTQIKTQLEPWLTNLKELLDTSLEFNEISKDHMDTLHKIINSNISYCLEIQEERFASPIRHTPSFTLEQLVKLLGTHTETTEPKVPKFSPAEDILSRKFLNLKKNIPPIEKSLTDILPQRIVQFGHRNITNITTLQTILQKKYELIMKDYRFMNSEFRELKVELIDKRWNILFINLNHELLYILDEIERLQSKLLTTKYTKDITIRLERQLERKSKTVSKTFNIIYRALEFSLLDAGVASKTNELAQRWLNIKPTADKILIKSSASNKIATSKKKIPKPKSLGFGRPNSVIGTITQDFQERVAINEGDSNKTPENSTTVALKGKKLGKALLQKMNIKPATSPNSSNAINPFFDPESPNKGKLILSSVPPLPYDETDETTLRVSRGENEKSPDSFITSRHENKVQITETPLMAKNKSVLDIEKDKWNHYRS

T3: Kar9-GFP (S. cerevisiae, UniProt P32526 1-644)
T3 sequence (looked up): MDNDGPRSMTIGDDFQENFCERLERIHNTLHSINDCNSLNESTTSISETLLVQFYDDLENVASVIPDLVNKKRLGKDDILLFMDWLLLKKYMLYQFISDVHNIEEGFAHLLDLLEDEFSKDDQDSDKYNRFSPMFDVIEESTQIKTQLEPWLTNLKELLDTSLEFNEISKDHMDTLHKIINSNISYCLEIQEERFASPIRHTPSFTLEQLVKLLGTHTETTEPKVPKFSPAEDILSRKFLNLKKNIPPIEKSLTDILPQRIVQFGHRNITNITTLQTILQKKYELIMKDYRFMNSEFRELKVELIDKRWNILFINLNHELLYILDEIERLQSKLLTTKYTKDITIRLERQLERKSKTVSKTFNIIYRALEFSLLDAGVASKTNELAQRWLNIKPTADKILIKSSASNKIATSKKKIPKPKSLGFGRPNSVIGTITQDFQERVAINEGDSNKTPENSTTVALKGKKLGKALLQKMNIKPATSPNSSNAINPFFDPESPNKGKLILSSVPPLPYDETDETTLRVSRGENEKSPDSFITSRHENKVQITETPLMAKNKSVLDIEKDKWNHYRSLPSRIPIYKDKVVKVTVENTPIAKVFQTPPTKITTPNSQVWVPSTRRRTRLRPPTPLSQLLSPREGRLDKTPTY

B1: Kar9 (full-length) (natural protein, S. cerevisiae, UniProt P32526 1-644, looked up)
chain: T3 sequence (looked up)
B2: C-terminally green fluorescent protein–tagged Bim1 (natural protein, S. cerevisiae, UniProt P40013 1-344, looked up)
chain: T1 sequence (looked up)
B3: Mal3 (unlabeled), Schizosaccharomyces pombe EB1 family member (natural protein, UniProt Q10113 1-308, looked up)
chain: MSESRQELLAWINQVTSLGLTRIEDCGKGYAMIQIFDSIYQDIPLKKVNFECNNEYQYINNWKVLQQVFLKKGIDKVVDPERLSRCKMQDNLEFVQWAKRFWDQYYPGGDYDALARRGNRGPANTRVMNSSAGATGPSRRRQVSSGSSTPSMTKSSANNNNVSSTANTAAVLRAKQAQQQITSLETQLYEVNETMFGLERERDFYFNKLREIEILVQTHLTTSPMSMENMLERIQAILYSTEDGFELPPDQPADLTTALTDHDTNNVAEEAQMTDLKDSETQRVPSAPDFVHARLQSLEVDDDENITF

Experiments:
[1] = biological target: T1, Bim1 (full-length); assay: SEC-MALS
[2] = biological target: B2; assay: AUC
[3] = biological target: the molecule itself; assay: AUC
[4] = biological target: T2, Kar9N-Site1 (first 570 N-terminal …); assay: fluorescence correlation spectroscopy
[5] = biological target: T3, Kar9-GFP; assay: in vitro microtubule-tip tracking reconstitution

Binder: B1
stoichiometry N [1]: 1 Kar9 monomer per Bim1 dimer | stoichiometry N [2]: 1 Kar9 monomer per Bim1 dimer

Binder: B2
stoichiometry N [3]: 2 | Kd [4]: ~100 µM

Binder: B3
binding result [5]: binds
